Source: patent US12077763B2, “RNA-based control of powdery mildew” (Greenlight Biosciences, Inc., priority 2021, dated 2024)

B1: GS1798: dsRNA trigger SEQ ID NO 192; gene target Tip elongation aberrant protein 1 (nucleic acid)
DNA: AAATGTGTACCACCTTCTTGATGTAATTCTGAACGCAGCCAAATCTCCCAAGTCAGATCCATCGTCAGCCCGTCCTCCAAAGACATACATCACATCGTCAACAATTGCTGCAGCATGACCTTCTCTTGGAACCGGTATATATCCTATGCAGTCCAAAAGAGTCCAGGAGTTCGGTATCGGATCATAACACCAAACATCGTTATACCATTGAAGACCATTTGTTCCGCCAAACAAGTAAAGCTTTTCATTATATGTCACAACTGAGTGATTTGTTCTAGCTGATGGTATTTGTCCTACTGGGGGTCCACCATCCTCACTATTTTTAATGAGAATTTCCCACCTGTTCGTAGGGACTTGCAAAAGATTCAAATCAAAAGCCACAAGGTCATTCATAAAATAACCCTCTACTTGCCCCCCGAATACGTAGATTTTAGACCCTAGTATATTGAGAGAATGACCATAACGCCCCGCGGGCCGTGGCCCGGCAGGTATAGCTCTGGACCATTGTCGGGTAGAGGTATTAAGTAAGTAAAGAGTTTCATCTAATACGTCAGAATCGTCCATTTTAGTATCCCCACCATATACAATAAAAGCATTT
B2: GS3343 (nucleic acid)
sense: CUAGCACUUACGAGCACGUCUCUUUGAAUUCAACUAGAGACUCACAAUUAUACCUUCCUCCUAUUAAAUCUUUAGUAUUGGAUACGAAAAAUGAGGGAAGUUAUUAGUGUUAAUGUUGGCCAAGCUGGGUGCCAAAUAGCAAACUCUUGCUGGGAGCUCUAUUGCCUUGAGCAUGGUAUACAGCCUGAUGGUUACUUAACGGAGAAGCGCAAGGCCGCCGAACCUGACGAAGGUUUCAGCACUUUUUUUUCAGAGACUGGUCAGGGAAAAUACGUACCUAGAACUAUUUAUUGUGAUCUUGAACCAAAUGUAGUCGAUGAAGUUCGUACGGGUACUUAUCGUAGCUUAUUCCACCCCGAGCAAAUGAUCACCGGAAAAGAAGAUGCAUCAAACAAUUA
antisense: UAAUUGUUUGAUGCAUCUUCUUUUCCGGUGAUCAUUUGCUCGGGGUGGAAUAAGCUACGAUAAGUACCCGUACGAACUUCAUCGACUACAUUUGGUUCAAGAUCACAAUAAAUAGUUCUAGGUACGUAUUUUCCCUGACCAGUCUCUGAAAAAAAAGUGCUGAAACCUUCGUCAGGUUCGGCGGCCUUGCGCUUCUCCGUUAAGUAACCAUCAGGCUGUAUACCAUGCUCAAGGCAAUAGAGCUCCCAGCAAGAGUUUGCUAUUUGGCACCCAGCUUGGCCAACAUUAACACUAAUAACUUCCCUCAUUUUUCGUAUCCAAUACUAAAGAUUUAAUAGGAGGAAGGUAUAAUUGUGAGUCUCUAGUUGAAUUCAAAGAGACGUGCUCGUAAGUGCUAG
B3: GS3337 (nucleic acid)
sense: UUUAUUAUGGCACUGGCGUGAAAAUACCUUAUCCCAAGGCAGAUACCGAUAAUGCGAGUGCUCAUGGAUAUACAAACAUUAAGGGCGGUAAUCCGGAAGGACGAGCUUUUCACCAUGGUAGACUAAUAUCUCAGCUCCGUAGAUGCUGCUCCCAGAACCCGAACAUCAAAAUUGUUGAAACGCUGGUUACAGAGACUAUUACGAAUCCUCAAACCCAAACUGUAAUUGGCGUAAGGUCAGAGACAAUGAAUGAUAAAACAGGCAAAAGAGAAGCCGACUACUAUUUGGGAGAUCUCACAAUUAUCGCCGAUGGAUAUGCAUCUAAAUUCCGAAAGCAGUAUAUAGACAAGUCACCCAUCGUAAAAAGCAAAUUCUAUGCUUUAGAGCUGAUAGAUU
antisense: AAUCUAUCAGCUCUAAAGCAUAGAAUUUGCUUUUUACGAUGGGUGACUUGUCUAUAUACUGCUUUCGGAAUUUAGAUGCAUAUCCAUCGGCGAUAAUUGUGAGAUCUCCCAAAUAGUAGUCGGCUUCUCUUUUGCCUGUUUUAUCAUUCAUUGUCUCUGACCUUACGCCAAUUACAGUUUGGGUUUGAGGAUUCGUAAUAGUCUCUGUAACCAGCGUUUCAACAAUUUUGAUGUUCGGGUUCUGGGAGCAGCAUCUACGGAGCUGAGAUAUUAGUCUACCAUGGUGAAAAGCUCGUCCUUCCGGAUUACCGCCCUUAAUGUUUGUAUAUCCAUGAGCACUCGCAUUAUCGGUAUCUGCCUUGGGAUAAGGUAUUUUCACGCCAGUGCCAUAAUAAA
B4: GS3344 (nucleic acid)
sense: GACUAUUGUCCUGACUAAACUAUAUACCAUCUGCUAACACGAUCCUCAAAGCAAAAUUUUUAACCGAUGAUCAUAAGUCAUGUAAAAGUUGAAAUUUCAACACACACCAAGAAAAAUAGCCUUGGUCUUUCAAUUUACAGCAUCCAUAUGGAUGCUAUUUUCUUAUAUAUUUCACCUACCUCCUGAGAACUGCAUCAAGAUUCGAGGUCGUUUCUUUAUAUAAUCAUGUCAAAUAAUGCAUGAUAAAUGAGUAAGAGGCUCUAGGCAGUCAAACUCAAAGAAUUGUCUUCAAUUGUAUUGUCAUUUUAUCUCAUUUGAUAAUGAGUUGUAGCCGCAACUCAAAUCAUUUUUCAUUUUUUGAAAAUGAAGUAAAAGACCGGUUUAAAAAAUUAAAUAUC
antisense: GAUAUUUAAUUUUUUAAACCGGUCUUUUACUUCAUUUUCAAAAAAUGAAAAAUGAUUUGAGUUGCGGCUACAACUCAUUAUCAAAUGAGAUAAAAUGACAAUACAAUUGAAGACAAUUCUUUGAGUUUGACUGCCUAGAGCCUCUUACUCAUUUAUCAUGCAUUAUUUGACAUGAUUAUAUAAAGAAACGACCUCGAAUCUUGAUGCAGUUCUCAGGAGGUAGGUGAAAUAUAUAAGAAAAUAGCAUCCAUAUGGAUGCUGUAAAUUGAAAGACCAAGGCUAUUUUUCUUGGUGUGUGUUGAAAUUUCAACUUUUACAUGACUUAUGAUCAUCGGUUAAAAAUUUUGCUUUGAGGAUCGUGUUAGCAGAUGGUAUAUAGUUUAGUCAGGACAAUAGUC
B5: GS3346 (nucleic acid)
sense: GUAGAGUUGAGCUUGGCCCUAAUGGCGUAAAUAAGAUCCAUGAAGUGGGAAACCUUGCUCCUGAAGAACAAGGUCUUUUAAAAGCUGCUCUAGUUGAUUUGUUAAAGAAUAUCGAAAAAGGAAUCAAAUUUGUUAACCAGAACCCCGGUGAAUAAAUAAAAUGUUAUUCAAUUUACAAUCUGUUGUUUUUUGAUCGUGGAUACCUUGAUAUUCAGUAACGAGGGAGAAUCAUUCUCCUGUCCCAAAAAAGUACUAUCUACUAUCUUAAAUUUUAUGGAAUCUUGAAUUUGUCCAAUGUAUCAAUAGAAAAAUUCUUUCAAAUUACAAGUCAAAAGUAUUAUGAAAAUUAAAAAGGACUAAUCCUCUUACAUAGAUAUAUAUAAAUAUA
antisense: UAUAUUUAUAUAUAUCUAUGUAAGAGGAUUAGUCCUUUUUAAUUUUCAUAAUACUUUUGACUUGUAAUUUGAAAGAAUUUUUCUAUUGAUACAUUGGACAAAUUCAAGAUUCCAUAAAAUUUAAGAUAGUAGAUAGUACUUUUUUGGGACAGGAGAAUGAUUCUCCCUCGUUACUGAAUAUCAAGGUAUCCACGAUCAAAAAACAACAGAUUGUAAAUUGAAUAACAUUUUAUUUAUUCACCGGGGUUCUGGUUAACAAAUUUGAUUCCUUUUUCGAUAUUCUUUAACAAAUCAACUAGAGCAGCUUUUAAAAGACCUUGUUCUUCAGGAGCAAGGUUUCCCACUUCAUGGAUCUUAUUUACGCCAUUAGGGCCAAGCUCAACUCUAC

tested on: E. necator; experiment: Leaf disc assay, dry inoculum (settling tower), decrease in disease severity / hyphal growth (Example 2); settings: decrease in disease severity (hyphal growth) relative to untreated control; time point 1 (untreated control hyphal growth ≥50%); value ± SE

Molecule	% decrease =/− SE TP1 [%]
B1	44 ± 4
B2	7 ± 6
B3	19 ± 5
B4	1 ± 7
B5	3 ± 6

same assay, conditions: decrease in disease severity (hyphal growth) relative to untreated control; time point 2; value ± SE

Molecule	% decrease =/− SE TP2 [%]
B1	47 ± 5
B3	15 ± 7
